Source: US20190106498A1, “TREATMENT FOR ACUTE MYELOID LEUKEMIA” (priority 2017, published 2019)

Experiments:
blasts = experiment: Phase I/II trial: blasts in bone marrow and peripheral blood (cytomorphology, flow cytometry, MRD); format: in vivo, human
Protocol: (§1) FIGS. 6A-6C Bone marrow (BM) blast load was assessed by cytomorphology (FIG. 6A), and flow cytometry using leukemia-associated immunophenotype (LAIP) gating (FIG. 6B) and blast gating (SSClow CD45dim; FIG. 6C). The latter method was used to determine measurable/minimal residual disease (MRD) status of the patient.
as §1, with “7A-7C Peripheral blood (PB)” for “6A-6C Bone marrow (BM)”, “7A),” for “6A),”, “7B)” for “6B)”, “CD45 dim;” for “CD45dim;”, “7C).” for “6C).”
Minimal residual disease (MRD) assessments were performed on bone marrow aspirates and/or whole blood collected at time points as specified in FIG. 5. Flow cytometry was utilized as the primary method of MRD analysis. Suitable flow cytometry markers for MRD assessment and determining AML subtype include CD16, CD13, CD34, CD117, CD11 b, CD10, HLA-DR, CD45, CD35, CD64, IREM-2, CD36, CD105, CD14, CD33, CD71, CD36, CD105, CD33, CD71, cTdT, CD56, CD7, CD19, cMPO, cLactoferrin, cLysozyme. An additional panel was used as a part of the trial, focusing on CD70, CD27 expression as well as markers indicative of stem cell potential or myeloid differentiation: CD27, CD70, CD34, CD117, CD11 b, HLA-DR, CD45, CD38, and CD123. When available, flow cytometry results were compared to other molecular approaches such as polymerase chain reaction (PCR) test.
For each patient, the number of blasts in bone marrow and peripheral blood were assessed at various time-points as outlined in FIG. 5.
(§2) To assess bone marrow blasts, bone marrow aspirates taken at the various time points were analysed. Methylcellulose colony assays using FACS sorted monocytes (mononuclear cells (CD45^dim) were selectively sorted by excluding doublets, dead cells and lymphocytes using Annexin V and antibodies for CD19 and CD4/CD8) were used to assess the number of LSCs in the bone marrow. In addition, bone marrow blast percentages were also assessed by cell morphology and flow cytometric analysis.

LSCs = experiment: Methylcellulose colony assays of patient mononuclear cells (LSC number/frequency, ELDA); format: in vivo, human
Protocol: FIGS. 9A-9F αCD70 mAb treatment reduces CD34^+CD38^− AML stem/progenitor cell frequencies in AML patients. (FIG. 9A) Colony formation of P2. 10^4 BM MNCs of patient P002 at diagnosis (SCR) and 14 days after administration of ARGX110 (1 mg/kg i.v., time point 0, or C1D1) were plated in methylcellulose and colony formation was assessed 2 weeks later. (FIG. 9B) Fold change in colony formation of different patients treated with indicated doses of ARGX110. (FIG. 9C) Colony formation at limiting dilution from P2. (FIG. 9D) Stem cell frequencies at SCR and Time point 0 determined in enhanced limiting dilution experiments for P2 and different patients treated with indicated doses of ARGX110. Data are represented as mean±S.D. Statistics: (a, b, e) Student's t-test; (FIG. 9E): χ^2 test; **, P<0.01; ***, P<0.001. (FIG. 9F) Colony formation of P2. 10^4, 5×10^3, 10^3 and 10^2 BM MNCs of patient P002 at diagnosis (SCR), 14 days after administration of ARGX110 (1 mg/kg i.v., time point 0, or C1D1) and after combination treatment (“combi”) were plated in methylcellulose and colony formation was assessed 2 weeks later.
as §2
To further explore the impact of the mono and combination therapies on the LSC populations in patients, methylcellulose colony assays using FACS sorted ex vivo monocytes were performed. Mononuclear cells (CD45^dim) were selectively sorted by excluding doublets, dead cells and lymphocytes using Annexin V and antibodies for CD19 and CD4/CD8 and serially plated on methylcellulose for 14 days.
Bone marrow aspirate taken at day 1 was compared to bone marrow aspirate taken before administration of the ARGX-110 loading dose. Methylcellulose colony assays using FACS sorted monocytes (mononuclear cells (CD45^dim) were selectively sorted by excluding doublets, dead cells and lymphocytes using Annexin V and antibodies for CD19 and CD4/CD8) were used to assess the number of LSCs in the bone marrow.

[1] = patient 1001001, 1 mg/kg with AZA, C3D1
[2] = patient 1001001, 1 mg/kg with AZA, C4D1
[3] = patient 1001002, 1 mg/kg with AZA, C2D17
[4] = patient 1001002, single dose 1 mg/kg
[5] = patient 1001002, loading dose 1 mg/kg

B1: ARGX-110: IgG1 anti-CD70 antibody with defucosylated Fc region; VH SEQ ID NO: 4, VL SEQ ID NO: 8 (antibody, V domains shown)
VH: EVQLVESGGGLVQPGGSLRLSCAASGFTFSVYYMNWVRQAPGKGLEWVSDINNEGGTTYYADSVKGRFTISRDNSKNSLYLQMNSLRAEDTAVYYCARDAGYSNHVPIFDSWGQGTLVTVSS
VL: QAVVTQEPSLTVSPGGTVTLTCGLKSGSVTSDNFPTWYQQTPGQAPRLLIYNTNTRHSGVPDRFSGSILGNKAALTITGAQADDEAEYFCALFISNPSVEFGGGTQLTVLG
modifications: IgG1, defucosylated Fc; Custom antibody fragment
- PB blast percentage (blasts; following monotherapy, C1D1 vs earlier): reduced
- bone marrow blasts according to MRD criteria (blasts; in vivo): significantly reduced
- bone marrow blast percentage (blasts; majority of patients, by C1D1 following monotherapy): at least partially or completely reduced by C1D1
- BM blasts by flow cytometry (blasts; [1]): 2.8%
- MRD for peripheral blood (blasts; [1]): 0.3%
- minimal residual disease analysis (MRD), bone marrow (blasts; [1]): 0.2%
- peripheral blood blast percentage by cell morphology (blasts; [2]): 0%
- peripheral blood blast percentage by flow cytometry (blasts; [2]): 0.8%
- peripheral blood MRD class (blasts; patient 1001001, 1 mg/kg with AZA, C4D17): MRD-negative
- peripheral blood blasts (blasts; patient 1001001, 1 mg/kg with AZA, after first complete cycle (C2D1)): cleared
- blast cell populations by cell morphology and flow cytometry (blasts; patient 1001001, single (loading) dose 1 mg/kg): reduction in bone marrow and in peripheral blood
- percentage of blasts in peripheral blood by cell morphology (blasts; [3]): 0%
- percentage of blasts in peripheral blood by flow cytometry (blasts; [3]): 0.8%
- overall blast percentage in peripheral blood (blasts; patient 1001002, 1 mg/kg with AZA, end of cycle 1 (C2D1)): approaching zero
- overall blast percentage in peripheral blood (blasts; patient 1001002, after loading dose 1 mg/kg (C1D1 vs screening)): fell
- percentage of total blasts in bone marrow by cell morphology (blasts; [4]): an increase was observed
- percentage of total blasts in bone marrow by flow cytometry (blasts; [4]): appeared to be reduced
- blast percentage (blasts; patient 1001003, C1D1): stable
- peripheral blasts (blasts; patient 1001003, with AZA, 1 cycle (C2D1)): no peripheral blasts
- PB blast percentage (blasts; under combination therapy with aza, from C1D1 onwards): further reduced
- reduction in LSC frequency compared to baseline (LSCs; FIG. 9F, after monotherapy (C1D1) and combination therapy (C4D1)): ~24 fold
- number of cells per colony (LSCs; following therapy (data not shown)): reduced
- circulating LSC levels (LSCs; monotherapy, then combination): reduced
- factor of reduction of the number of LSCs in the bone marrow (LSCs; patient 1001001, single dose 1 mg/kg, day 1 vs before loading dose, ELDA): 140,000
- cell number per colony (LSCs; [5]): reduced
- factor of reduction of LSCs in the bone marrow (LSCs; [5]): 2
- decrease of colony formation (LSCs; patient 1001002, loading dose 1 mg/kg, all informative serial dilution concentrations): greater than 50%
